The values that follow are results of earlier work, collected in patent publication US20140179681A1, “METHODS AND COMPOSITIONS OF TARGETED DRUG DEVELOPMENT” (priority 2010, published 2014).

As a reminder, the Kd is the free concentration of one partner at which half of the binding sites on the other are occupied at equilibrium, for simple one-to-one binding.

The target of the series is T1, EGF binding site (Rattus norvegicus, UniProt G3V6K6).
T1 construct: Receptor source was rat liver membranes; tissue NovaScreen BioSciences; host or cells: rat liver membranes
The settings on record: radioligand of the inhibitor assays; rat liver membranes; read-out: KD (binding affinity).

B1: [^125I]EGF: "The radioligand was [^125I]EGF ([…]) at a final ligand concentration of 0.36 nM" (protein, UniProt P01133 23-1207, looked up)
Pro-epidermal growth factor: PQHWSCPEGTLAGNGNSTCVGPAPFLIFSHGNSIFRIDTEGTNYEQLVVDAGVSVIMDFHYNEKRIYWVDLERQLLQRVFLNGSRQERVCNIEKNVSGMAINWINEEVIWSNQQEGIITVTDMKGNNSHILLSALKYPANVAVDPVERFIFWSSEVAGSLYRADLDGVGVKALLETSEKITAVSLDVLDKRLFWIQYNREGSNSLICSCDYDGGSVHISKHPTQHNLFAMSLFGDRIFYSTWKMKTIWIANKHTGKDMVRINLHSSFVPLGELKVVHPLAQPKAEDDTWEPEQKLCKLRKGNCSSTVCGQDLQSHLCMCAEGYALSRDRKYCEDVNECAFWNHGCTLGCKNTPGSYYCTCPVGFVLLPDGKRCHQLVSCPRNVSECSHDCVLTSEGPLCFCPEGSVLERDGKTCSGCSSPDNGGCSQLCVPLSPVSWECDCFPGYDLQLDEKSCAASGPQPFLLFANSQDIRHMHFDGTDYGTLLSQQMGMVYALDHDPVENKIYFAHTALKWIERANMDGSQRERLIEEGVDVPEGLAVDWIGRRFYWTDRGKSLIGRSDLNGKRSKIITKENISQPRGIAVHPMAKRLFWTDTGINPRIESSSLQGLGRLVIASSDLIWPSGITIDFLTDKLYWCDAKQSVIEMANLDGSKRRRLTQNDVGHPFAVAVFEDYVWFSDWAMPSVMRVNKRTGKDRVRLQGSMLKPSSLVVVHPLAKPGADPCLYQNGGCEHICKKRLGTAWCSCREGFMKASDGKTCLALDGHQLLAGGEVDLKNQVTPLDILSKTRVSEDNITESQHMLVAEIMVSDQDDCAPVGCSMYARCISEGEDATCQCLKGFAGDGKLCSDIDECEMGVPVCPPASSKCINTEGGYVCRCSEGYQGDGIHCLDIDECQLGEHSCGENASCTNTEGGYTCMCAGRLSEPGLICPDSTPPPHLREDDHHYSVRNSDSECPLSHDGYCLHDGVCMYIEALDKYACNCVVGYIGERCQYRDLKWWELRHAGHGQQQKVIVVAVCVVVLVMLLLLSLWGAHYYRTQKLLSKNPKNPYEESSRDVRSRRPADTEDGMSSCPQPWFVVIKEHQDLKNGGQPVAGEDGQAADGSMQPTSWRQEPQLCGMGTEQGCWIPVSSDKGSCPQVMERSFHMPSYGTQTLEGGVEKPHSLLSANPLWQQRALDPPHQMELTQ
modifications: Pro-epidermal growth factor 125I label
Take B1: the Kd was 1.04 nM.
